Assay results taken from patent US7799901B2, “Modulators of the function of FAS receptors and other proteins” (Yeda Research and Development Co. Ltd., priority 1995, dated 2010).

Experiments:
[1] = system: human embryonic kidney 293-EBNA cells; assay: Cell death on overexpression of MACH isoforms in 293-EBNA cells; assay type: cell-based; settings: β-galactosidase-expressing cells with apoptopic morphology, 20 h after transfection
Protocol: To explore the involvement of MACH in cell-death induction, the effect of overexpression of various MACH isoforms on cell viability was examined. The test was performed by transfecting MACH expression vectors together with a β-galactosidase expression vector as a transfection marker into human embryonic kidney 293-EBNA cells and breast carcinoma MCF7 cells.
In brief, 293-EBNA cells, MCF7 human breast carcinoma cells and HeLa HtTA-1 cells were grown in Dulbecco's modified Eagle's minimal essential medium supplemented with 10% fetal calf serum, nonessential amino acids, 100 U/ml penicillin and 100 μg/ml streptomycin. Cell tissue culture dishes (5×10^5 293-EBNA cells, 3×10^5 s MCF7 cells or 3×10^5 HeLa cells in 6-cm dishes) were transiently transfected, using the calcium phosphate precipitation method, with the cDNAs of the indicated proteins together with the β-galactosidase expression vector. In the experiments presented in FIGS. 14A-D and 15, each dish was transfected with 3.5 μg of the indicated MACH construct and 1.5 μg of pSV-β-gal. In the experiments presented in FIGS. 16A-D and 17-19, each dish was transfected with 2.5 μg of the indicated MACH or MORT1 construct (or, as control, empty vector) and 1.5 μg of pSV-β-gal. The cells were rinsed 6 to 10 h after transfection. The 293-EBNA and MCF7 cells were incubated for a further 18 h without additional treatment. The HeLa cells were incubated for 26 h after transfection and-then for 5 h in the presence of either anti-Fas.APO1 antibody (CH11, 0.5 μg/ml) or TNF (100 ng/ml), together with cycloheximide (10 μg/ml). The extent of cell death at the end of the incubation periods was assessed by determination of β-galactosidase expression, as described by Kumar et al, 1994.
In particular, FIGS. 14A-D show the morphology of human embryonic kidney 293-EBNA cells transiently expressing the indicated MACH isoforms. The arrows (FIG. 14B) point to apoptopic cells. Photographs were taken 26 h after transfection. […] Data are from three independent experiments with the 293-EBNA cells and two independent experiments with the MCF7 cells.

MORT-1 = target: T1, MORT-1 (Homo sapiens, UniProt Q13158, G32V); assay: Two-hybrid β-galactosidase expression filter assay in SFY526 yeast, DNA-binding domain hybrid MORT-1; parameters: the full-length MORT-1 cDNA was used (MORT 1); expressed in transfected cells; host or cells: SFY526 yeast; settings: substance as activation domain hybrid
T1 sequence (Q13158 with tags, fused parts or gaps G32V): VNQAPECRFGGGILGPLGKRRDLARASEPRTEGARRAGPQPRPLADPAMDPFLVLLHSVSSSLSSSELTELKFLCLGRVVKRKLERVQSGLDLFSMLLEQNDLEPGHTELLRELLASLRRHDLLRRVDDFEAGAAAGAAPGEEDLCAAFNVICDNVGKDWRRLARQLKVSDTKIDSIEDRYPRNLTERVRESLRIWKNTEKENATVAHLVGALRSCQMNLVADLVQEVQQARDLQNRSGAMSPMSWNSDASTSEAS
Description: (§1) To isolate proteins interacting with the intracellular domain of the FAS-R, the yeast two-hybrid system was used (Fields and Song, 1989). […] In this system, the genes for the candidate interacting proteins are cloned into separate expression vectors. In one expression vector, the sequence of the one candidate protein is cloned in phase with the sequence of the GAL4 DNA-binding domain to generate a hybrid protein with the GAL4 DNA-binding-domain, and in the other vector, the sequence of the second candidate protein is cloned in phase with the sequence of the GAL4 activation domain to generate a hybrid protein with the GAL4-activation domain. The two hybrid vectors are then co-transformed into a yeast host strain having a lacZ or HIS3 reporter gene under the control of upstream GAL4 binding sites. Only those transformed host cells (cotransformants) in which the two hybrid proteins are expressed and are capable of interacting with each other, will be capable of expressing the reporter gene. […]
The yeast two-hybrid test was further applied to evaluate the specificity of binding of MACH to MORT-1, in particular, to define the region in MORT-1 to which MACH binds, as well as to determine which of the MACH ORFs interacts with MORT-1, the procedures being as set forth herein above in Examples 1 and 2. Briefly, various MORT-1 and MACH constructs were prepared for testing the interaction of the proteins encoded by the Gal4 DNA-binding domain and activation domain constructs within transfected SFY526 yeast cells as assessed by the β-galactosidase expression filter assay. […] In the assay, the development of color was determined, where the greater the color development, the greater the interaction between the constructs encoded by the DNA-binding domain and activation domain; Color development was depicted by symbols, where “+++” and “+” indicate the development of a strong color within 30 and 90 min. of the assay, respectively, and “−−−” indicates the lack of development of color within 24 hrs. of the assay. […]

MACH B = target: T2, MACH B (Homo sapiens, UniProt Q14790); assay: Two-hybrid β-galactosidase expression filter assay in SFY526 yeast, DNA-binding domain hybrid MACH B; settings: DNA-binding domain hybrid MACH B (ORF-B region)
T2 construct: a construct encoding only the ORF-B (MACH B) region; expressed in transfected cells; host or cells: SFY526 yeast
Description: as §1, with “sites.” for “sites. Only those transformed host cells (cotransformants) in which the two hybrid proteins are expressed and are capable of interacting with each other, will be capable of expressing the reporter gene.”
The yeast two-hybrid test was further applied to evaluate the specificity of binding of MACH to MORT-1, in particular, to define the region in MORT-1 to which MACH binds, as well as to determine which of the MACH ORFs interacts with MORT-1, the procedures being as set forth herein above in Examples 1 and 2. Briefly, various MORT-1 and MACH constructs were prepared for testing the interaction of the proteins encoded by the Gal4 DNA-binding domain and activation domain constructs within transfected SFY526 yeast cells as assessed by the β-galactosidase expression filter assay. […]

## MACHα1: MACH isoform, cDNA SEQ ID NO: 14, amino acid SEQ ID NO: 7; contains CED3/ICE homology region
[1]
  cell death of transfected 293-EBNA cells: massive cell death

B1: MACHα1 (C360S): MACHα1 mutant in which the catalytic cysteine Cys360 is replaced by Ser (protein)
chain: MDFSRNLYDIGEQLDSEDLASLKFLSLDYIPQRKQEPIKDALMLFQRLQEKRMLEESNLSFLKELLFRINRLDLLITYLNTRKEEMERELQTPGRAQISAYRVMLYQISEEVSRSELRSFKFLLQEEISKCKLDDDMNLLDIFIEMEKRVILGEGKLDILKRVCAQINKSLLKIINDYEEFSKERSSSLEGSPDEFSNGEELCGVMTISDSPREQDSESQTLDKVYQMKSKPRGYCLIINNHNFAKAREKVPKLHSIRDRNGTHLDAGALTTTFEELHFEIKPHDDCTVEQIYEILKIYQLMDHSNMDCFICCILSHGDKGIIYGTDGQEAPIYELTSQFTGLKCPSLAGKPKVFFIQASQGDNYQKGIPVETDSEEQPYLEMDLSSPQTRYIPDEADFLLGMATVNNCVSYRNPAEGTWYIQSLCQSLRERCPRGDDILTILTEVNYEVSNKDDKKNMGKQMPQPTFTLRKKLVFPSD
[1]
  cell death of transfected 293-EBNA cells: No death

B2: MORT-1: Mediator of Receptor-induced Toxicity; protein binding the intracellular domain of FAS-R, SEQ ID NO:2 (protein)
chain: VNQAPECRFGGGILGPLGKRRDLARASEPRTEGARRAGPQPRPLADPAMDPFLVLLHSVSSSLSSSELTELKFLCLGRVVKRKLERVQSGLDLFSMLLEQNDLEPGHTELLRELLASLRRHDLLRRVDDFEAGAAAGAAPGEEDLCAAFNVICDNVGKDWRRLARQLKVSDTKIDSIEDRYPRNLTERVRESLRIWKNTEKENATVAHLVGALRSCQMNLVADLVQEVQQARDLQNRSGAMSPMSWNSDASTSEAS
MORT-1
  development of color (interaction with DNA-binding domain hybrid): +++ (“+++” and “+” indicate the development of a strong color within 30 and 90 min. of the assay, respectively)
MACH B
  development of color (interaction with DNA-binding domain hybrid): + (“+++” and “+” indicate the development of a strong color within 30 and 90 min. of the assay, respectively)

B3: MACHβ1: MACH isoform, cDNA SEQ ID NO: 4, amino acid SEQ ID NO: 5; lacks the CED3/ICE homology region (protein)
chain: MDFSRNLYDIGEQLDSEDLASLKFLSLDYIPQRKQEPIKDALMLFQRLQEKRMLEESNLSFLKELLFRINRLDLLITYLNTRKEEMERELQTPGRAQISAYRVMLYQISEEVSRSELRSFKFLLQEEISKCKLDDDMNLLDIFIEMEKRVILGEGKLDILKRVCAQINKSLLKIINDYEEFSKERSSSLEGSPDEFSNDFGQSLPNEKQTSGILSDHQQSQFCKSTGESAQTSQH
[1]
  cell death of transfected 293-EBNA cells: some slight cell death
MORT-1
  development of color (interaction with DNA-binding domain hybrid): +++ (“+++” and “+” indicate the development of a strong color within 30 and 90 min. of the assay, respectively)
MACH B
  development of color (interaction with DNA-binding domain hybrid): + (“+++” and “+” indicate the development of a strong color within 30 and 90 min. of the assay, respectively)
